B1: DNPH1^E104Q (human 2'-deoxynucleoside 5'-monophosphate N-glycosidase, crystallisation construct aa 19-162, E104Q) (enzyme, UniProt O43598 19-162, looked up)
chain: GRPALYFCGSIRGGREDRTLYERIVSRLRRFGTVLTEHVAAAELGARGEEAAGGDRLIHEQDLEWLQQADVVVAEVTQPSLGVGYQLGRAVAFNKRILCLFRPQSGRVLSAMIRGAADGSRFQVWDYEEGEVEALLDRYFEADP
notes: also called RCL; source: E. coli BL21 Star (DE3), purified (Ni-NTA, TEV cleavage, HisTrap and Resource Q flow-through, size exclusion)
B2: DNPH1^E55Q (human 2'-deoxynucleoside 5'-monophosphate N-glycosidase, crystallisation construct aa 19-162, E55Q) (enzyme, UniProt O43598 19-162, looked up)
chain: GRPALYFCGSIRGGREDRTLYERIVSRLRRFGTVLTQHVAAAELGARGEEAAGGDRLIHEQDLEWLQQADVVVAEVTQPSLGVGYELGRAVAFNKRILCLFRPQSGRVLSAMIRGAADGSRFQVWDYEEGEVEALLDRYFEADP
modifications: deoxyribose monophosphate (dRP) covalently fused to E104
notes: 2'-deoxynucleoside 5'-monophosphate N-glycosidase (DNPH1, RCL), human, isoform 1, residues 19-162 (crystallisation construct) with the point mutation E55Q; Co-crystallised with hmdUMP; the crystal holds the trapped glycosyl-enzyme intermediate; also called RCL

Columns and labels:
[1] = target: the molecule itself; assay: crystal structure; DNPH1^E104Q co-crystallised with hmdUMP at 4 °C; space group P2_(1), 1.78 Å; six chains in the asymmetric unit
[2] = target: the molecule itself; assay: crystal structure; DNPH1^E55Q co-crystallised with hmdUMP; space group P2_(1)2_(1)2_(1), 1.65 Å; one homodimer in the asymmetric unit

Protein	binding result [1]	binding result [2]
B1	binds	–
B2	–	binds
